Patent US20170022269A1 (AbbVie / Abbott, published 2017)

Tests used:
[1] = target: T1, Aβ(1-40) monomer (human); assay: dot blot densitometry, antibody 0.2 µg/ml; column Aβ(1-40) monomer, 0.1% NH4OH
T1 construct: also called monomeric Aβ(1-40); Aβ(1-40) monomer, 0.1% NH4OH
Protocol: (§1) Dot blot procedure: [0556] 1) 1 μl each of the different Aβ-standards (in their 5 serial dilutions) were dotted onto the nitrocellulose membrane in a distance of approximately 1 cm from each other. [0557] 2) The Aβ-standards dots were allowed to dry on the nitrocellulose membrane on air for at least 10 min at room temperature (RT)(=dot blot) [0558] 3) Blocking: [0559] The dot blot was incubated with 30 ml 5% low fat milk in TBS for 1.5 h at RT. [0560] 4) Washing: [0561] The blocking solution was discarded and the dot blot was incubated under shaking with 20 ml TTBS for 10 min at RT. [0562] 5) Antibody solution I: [0563] The washing buffer was discarded and the dot blot was incubated with antibody solution I for 2 h at RT [0564] 6) Washing: [0565] The antibody solution I was discarded and the dot blot was incubated under shaking with 20 ml TTBS for 10 min at RT. The washing solution was discarded and the dot blot was incubated under shaking with 20 ml TTBS for 10 min at RT. The washing solution was discarded and the dot blot was incubated under shaking with 20 ml TBS for 10 min at RT. [0566] 7) Antibody solution II: [0567] The washing buffer was discarded and the dot blot was incubated with antibody solution II overnight at RT [0568] 8) Washing: [0569] The antibody solution II was discarded and the dot blot was incubated under shaking with 20 ml TTBS for 10 min at RT. The washing solution was discarded and the dot blot was incubated under shaking with 20 ml TTBS for 10 min at RT. The washing solution was discarded and the dot blot was incubated under shaking with 20 ml TBS for 10 min at RT. [0570] 9) Development: [0571] The washing solution was discarded. The dot blot was developed with 10 ml BM Blue POD Substrate for 10 min. The development was stopped by intense washing of the dot blot with H₂O. Quantitative evaluation was done using a densitometric analysis (GS800 densitometer (BioRad) and software package Quantity one, Version […] (BioRad)) of the dot-intensity. […] This threshold value was determined for every dot-blot independently. The calculated value indicates the relation between recognition of Aβ(20-42) globulomer and the respective Aβ form for the antibody given

[2] = target: T2, Aβ(12-42) globulomer (human); assay: dot blot, antibody 0.2 µg/ml
T2 construct: also called truncated Aβ(12-42) globulomer
T2 peptide: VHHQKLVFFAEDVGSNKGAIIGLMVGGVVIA
Protocol: Dot blot procedure: [0556] 1) 1 μl each of the different Aβ-standards (in their 5 serial dilutions) were dotted onto the nitrocellulose membrane in a distance of approximately 1 cm from each other. [0557] 2) The Aβ-standards dots were allowed to dry on the nitrocellulose membrane on air for at least 10 min at room temperature (RT)(=dot blot) [0558] 3) Blocking: [0559] The dot blot was incubated with 30 ml 5% low fat milk in TBS for 1.5 h at RT. [0560] 4) Washing: [0561] The blocking solution was discarded and the dot blot was incubated under shaking with 20 ml TTBS for 10 min at RT. [0562] 5) Antibody solution I: [0563] The washing buffer was discarded and the dot blot was incubated with antibody solution I for 2 h at RT [0564] 6) Washing: [0565] The antibody solution I was discarded and the dot blot was incubated under shaking with 20 ml TTBS for 10 min at RT. The washing solution was discarded and the dot blot was incubated under shaking with 20 ml TTBS for 10 min at RT. […] Quantitative evaluation was done using a densitometric analysis (GS800 densitometer (BioRad) and software package Quantity one, Version […] (BioRad)) of the dot-intensity. […] This threshold value was determined for every dot-blot independently. The calculated value indicates the relation between recognition of Aβ(20-42) globulomer and the respective Aβ form for the antibody given

[3] = target: T3, sAPPα (Sigma) (UniProt P05067-4 18-612, limits assumed); assay: dot blot densitometry, antibody 0.2 µg/ml; column sAPPα
T3 construct: Bought protein; also called Sigma cat. no; S9564
T3 sequence (P05067 other isoform, or with tags, fused parts or gaps limits assumed): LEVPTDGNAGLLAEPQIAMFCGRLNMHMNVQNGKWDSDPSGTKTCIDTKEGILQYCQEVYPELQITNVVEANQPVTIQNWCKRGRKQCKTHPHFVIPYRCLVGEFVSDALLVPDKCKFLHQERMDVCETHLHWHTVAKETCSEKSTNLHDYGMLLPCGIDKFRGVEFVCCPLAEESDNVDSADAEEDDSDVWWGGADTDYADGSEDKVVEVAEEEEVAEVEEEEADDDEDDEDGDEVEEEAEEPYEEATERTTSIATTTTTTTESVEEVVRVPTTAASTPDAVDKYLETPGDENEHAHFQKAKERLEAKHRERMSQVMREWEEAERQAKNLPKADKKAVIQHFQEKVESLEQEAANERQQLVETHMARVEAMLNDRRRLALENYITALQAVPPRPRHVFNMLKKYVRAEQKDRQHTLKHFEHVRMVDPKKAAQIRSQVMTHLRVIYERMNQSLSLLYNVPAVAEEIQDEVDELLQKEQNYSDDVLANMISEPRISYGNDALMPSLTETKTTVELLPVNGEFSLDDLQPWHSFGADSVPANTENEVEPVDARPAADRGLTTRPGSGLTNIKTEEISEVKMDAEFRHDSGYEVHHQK
Protocol: as §1

[4] = target: T3, sAPPα (Sigma); assay: dot blot on nitrocellulose
Protocol: as §1

[5] = target: T1, Aβ(1-40) monomer; assay: dot blot on nitrocellulose
Protocol: as §1

[6] = target: T4, Aβ(20-42) globulomer (human); assay: dot blot densitometry, antibody 0.2 µg/ml; column Aβ(20-42) globulomer (reference)
T4 construct: also called truncated Aβ(20-42) globulomer; Aβ(20-42) globular oligomer
T4 peptide: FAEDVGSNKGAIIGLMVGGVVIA
Protocol: as §1

[7] = target: T1, Aβ(1-40) monomer; assay: dot blot densitometry, antibody 0.2 µg/ml; column Aβ(1-40) monomer, 0.1% NaOH
Protocol: as §1

[8] = target: T2, Aβ(12-42) globulomer; assay: dot blot on nitrocellulose
Protocol: as §1

[9] = target: T2, Aβ(12-42) globulomer; assay: dot blot densitometry, antibody 0.2 µg/ml; column Aβ(12-42) globulomer
Protocol: as §1

T1 sequence (peptide, as listed by the source): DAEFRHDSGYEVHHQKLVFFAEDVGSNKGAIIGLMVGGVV

Binder	relation between recognition of Aβ(20-42) globulomer and the respective Aβ form [1]	binding result [2]	relation between recognition of Aβ(20-42) globulomer and the respective Aβ form [3]	binding result [4]	binding result [5]	relation between recognition of Aβ(20-42) globulomer and the respective Aβ form [6]	relation between recognition of Aβ(20-42) globulomer and the respective Aβ form [7]	binding result [8]	relation between recognition of Aβ(20-42) globulomer and the respective Aβ form [9]
monoclonal antibody 5F7 (antibody, V domains shown, Mouse monoclonal antibody from hybridoma, Protein A purified; also called mAb 5F7; ML15-5F7.5B10) VH: QVQLKQSGAELVRPGTSVKMSCKASGYTFTTFYIHWVKQRPGQGLEWIGMIGPGSGNTYYNEMFKDKATLTVDTSSSTAYMQLSSLTSEDSAVYFCARAKSARAAWFAYWGQGTLVTVSA VL: DVLMTQTPLSLPVSLGDQASISCRSSQSVVQSNGNTYLEWYLQKPGQSPKLLIYKVSNRFSGVPDRFSGSGSGTDFTLKISRVEAEDLGVYYCFQGSHVPPTFGGGTKLEIKR	> 10000	binds	> 100	no binding (tested: antibody 0.2 µg/ml; first dot 1 pmol)	no binding	1			
monoclonal antibody 2F2 (antibody, V domains shown, Mouse monoclonal antibody from hybridoma; also called ML15-2F2.3E12; hybridoma ATCC PTA-7408) VH: QVQLKQSGAELVRPGTSVKMSCKASGYTFTTFYIHWVKQRPGQGLEWIGMIGPGSGNTYYNEMFKDKATLTVDTSSSTAYMQLSSLTSEDSAVYFCARAKSARAAWFAYWGQGTLVTVSA VL: DVLMTQTPLSLPVSLGDQASISCRSSQSVVQSNGNTYLEWYLQKPGQSPKLLIYKVSNRFSGVPDRFSGSGSGTDFTLKISRVEAEDLGVYYCFQGSHVPPTFGGGTKLEIKR	> 10000	binds	> 100	no binding (tested: antibody 0.2 µg/ml; first dot 1 pmol)	no binding	1	> 10000		
monoclonal antibody 6A2 (antibody, V domains shown, Mouse monoclonal antibody from hybridoma; also called ML15-6A2.4B10; hybridoma ATCC PTA-7409) VH: QVQLQQSGAELVRPGTSVKMSCKASGYTFTTFYIHWVRQRPGQGLEWIGMIGPGSGNTYYNEMFKDKATLTVDTSSSTAYMQLSSLTSEDSAVYFCARAKSHRAAWFAYWGQGTLVTVSA VL: DVLMTQTPLSLPVSLGDQASISCRSSQSVVQSNGNTYLEWYLQKPGQSPKLLIYKVSNRFFGVPDRFSGSRSGTDFTLKISRVEAEDLGVYYCFQGSHVPPTFGGGTKLEIKR			> 1000	no binding (tested: antibody 0.2 µg/ml; first dot 1 pmol)					
monoclonal antibody 7C6 (antibody, V domains shown, Mouse monoclonal antibody from hybridoma; also called ML13-7C6.1D4.4A9.5G8; hybridoma ATCC PTA-7240) VH: EVKLVESGGGLVKPGGSLKLSCAASGFTFSSYAMSWVRQTPAKRLEWVASIHNRGTIFYLDSVKGRFTISRDNVRNTLYLQMSSLRSEDTAIYYCTRGRSNSYAMDYWGQGTSVTVSS VL: DVLVTQSPLSLPVRLGDQASISCRSTQTLVHRNGDTYLEWYLQKPGQSPKSLIYKVSNRFSGVPDRFSGSGSGTDFTLKISRVEAEDLGVYYCFQGSHVPYTFGGGTKLEIKR	> 100000		> 1000	no binding (tested: antibody 0.2 µg/ml; first dot 1 pmol)	no binding	1	> 100000	no binding	> 100000
monoclonal antibody 10F11 (antibody, V domains shown, Mouse monoclonal antibody from hybridoma; also called ML15-10F11.3D9; hybridoma ATCC PTA-7239) VH: QVQLQQSGPELVKPGASVKMSCKASGYTFTSYVMHWVKQRPGQGLEWIGYIYPYNDGTKYNEKFKGKATLTSDKSSSTVYMELSSLTSEDSTVYYCTVEGATWDGYFDVWGTGTTVTVSS VL: not shown			> 1000	no binding (tested: antibody 0.2 µg/ml; first dot 1 pmol)		1			12
monoclonal antibody 7E5 (antibody, V domains shown, Mouse monoclonal antibody from hybridoma; also called ML15-7E5.5E12; hybridoma ATCC PTA-7809) VH: EVKLVESGGGLVQPGGSRKLSCAASGFTFSDYEMVWVRQAPGEGLEWVAYISSGSRTIHYADTVKGRFTISRDNPKNTLFLQMSSLRSEDTAMYYCARTLLRLHFDYWGQGTILTVSS VL: DIVMSQSPSSLAVSVGEKVTMSCRSSQSLFYRSNQKNFLAWYQQKPGQSPKLLIYWASTRESGVPDRFTGSGSGTDFTLTISSVKAEDLAVYYCQQYYSYPWTFGGGTKLEIKR	> 100000		> 1000	no binding (tested: antibody 0.2 µg/ml; first dot 1 pmol)	no binding	1	> 100000	no binding	> 100000
monoclonal antibody 4B7 (antibody, V domains shown, Mouse monoclonal antibody from hybridoma; also called ML15-4B7.3A6; hybridoma ATCC PTA-7242) VH: EVKLVESGGGLVQPGGSRKLSCAASGFTFSDYEMVWVRQAPGEGLEWVAYISSGSRTIHYADTVKGRFTISRDNPKNTLFLQMSSLRSEDTAMYYCARTLLRLHFDYWGQGTILTVSS VL: DIVMSQSPSSLAVSVGEKVTMSCRSSQSLFYRSNQKNFLAWYQQKPGQSPKLLIYWASTRESGVPDRFTGSGSGTDFTLTISSVKAEDLAVYYCQQYYSYPWTFGGGTKLEIKR			> 1000	no binding (tested: antibody 0.2 µg/ml; first dot 1 pmol)	no binding	1	> 100000	no binding	> 100000
monoclonal antibody 10C1 (antibody, V domains shown, Mouse monoclonal antibody from hybridoma; also called ML15-10C1.5C6.3H4; hybridoma ATCC PTA-7810) VH: EVKLVESGGGLVQPGGSRKLSCAASGFTFSDYEMVWVRQAPGKGLEWVAYINSGSGTIHYADTVKGRFTISRDNPKNTLFLQMSSLRSEDTAMYYCARTLLRLHFDYWGQGTILTVSS VL: DIVMSQSPSSLAVSVGEKVTMSCKSSQSLFYSRNQKNFLAWYQQKPGQSPKLLIYWASTGESGVPDRFTGSGSGTDFTLTISSVKAEDLAVYYCQQYFSYPWTFGGGTKLEIKR	> 100000		> 1000	no binding (tested: antibody 0.2 µg/ml; first dot 1 pmol)	no binding	1	> 100000	no binding	> 100000
monoclonal antibody 4D10 (antibody, V domains shown, Mouse monoclonal antibody from hybridoma; also called ML13-4D10.3F3; hybridoma ATCC PTA-7405) VH: QVQLKQSGPSLIQPSQSLSITCTVSGFSLTSYGVHWVRQSPGKGLEWLGVIWRGGRIDYNAAFMSRLSITKDNSKSQVFFKMNSLQADDTAIYYCARNSDVWGTGTTVTVSS VL: not shown			> 100	no binding (tested: antibody 0.2 µg/ml; first dot 1 pmol)	no binding	1			29
